Patent US20190322720A1
Values belong to the substance of their own block, whether it stands above or below them.

Columns and labels:
[1] = molecular target: MUC5AC expressed by CFPAC-1 pancreatic tumor cells (human) (UniProt P98088); assay: immunofluorescence, fixed and permeabilized CFPAC-1 cells, 2 µg/ml
[2] = molecular target: MUC5AC expressed by LS174T colorectal tumor cells (human) (UniProt P98088); assay: flow cytometry, LS174T colorectal tumor cells
[3] = molecular target: MUC5AC expressed by LS174T colorectal tumor cells (human) (UniProt P98088); assay: FACS, LS174 cells, 2 µg/ml FITC antibody
[4] = molecular target: MUC5AC (human) (UniProt P98088); assay: FACS, Colo-205 cells, 2 µg/ml FITC antibody
[5] = molecular target: MUC5AC expressed by CFPAC-1 pancreatic tumor cells (human) (UniProt P98088); assay: flow cytometry, CFPAC-1 pancreatic tumor cells
[6] = molecular target: MUC5AC (human) (UniProt P98088); assay: flow cytometry, Colo-205 colorectal tumor cells
[7] = molecular target: MUC5AC (human) (UniProt P98088); assay: FACS, SW480 cells, 2 µg/ml FITC antibody
[8] = molecular target: MUC5AC (human) (UniProt P98088); assay: flow cytometry, SW480 colorectal tumor cells
[9] = molecular target: MUC5AC expressed by CFPAC-1 pancreatic tumor cells (human) (UniProt P98088); assay: FACS, CFPAC cells, 2 µg/ml FITC antibody
[10] = molecular target: MUC5AC expressed by CFPAC-1 pancreatic tumor cells (human) (UniProt P98088); assay: rosetting assay, antibody-coupled beads on CFPAC-1 cells

Sequence of MUC5AC (human) (P98088 other isoform, or with tags, fused parts or gaps limits assumed): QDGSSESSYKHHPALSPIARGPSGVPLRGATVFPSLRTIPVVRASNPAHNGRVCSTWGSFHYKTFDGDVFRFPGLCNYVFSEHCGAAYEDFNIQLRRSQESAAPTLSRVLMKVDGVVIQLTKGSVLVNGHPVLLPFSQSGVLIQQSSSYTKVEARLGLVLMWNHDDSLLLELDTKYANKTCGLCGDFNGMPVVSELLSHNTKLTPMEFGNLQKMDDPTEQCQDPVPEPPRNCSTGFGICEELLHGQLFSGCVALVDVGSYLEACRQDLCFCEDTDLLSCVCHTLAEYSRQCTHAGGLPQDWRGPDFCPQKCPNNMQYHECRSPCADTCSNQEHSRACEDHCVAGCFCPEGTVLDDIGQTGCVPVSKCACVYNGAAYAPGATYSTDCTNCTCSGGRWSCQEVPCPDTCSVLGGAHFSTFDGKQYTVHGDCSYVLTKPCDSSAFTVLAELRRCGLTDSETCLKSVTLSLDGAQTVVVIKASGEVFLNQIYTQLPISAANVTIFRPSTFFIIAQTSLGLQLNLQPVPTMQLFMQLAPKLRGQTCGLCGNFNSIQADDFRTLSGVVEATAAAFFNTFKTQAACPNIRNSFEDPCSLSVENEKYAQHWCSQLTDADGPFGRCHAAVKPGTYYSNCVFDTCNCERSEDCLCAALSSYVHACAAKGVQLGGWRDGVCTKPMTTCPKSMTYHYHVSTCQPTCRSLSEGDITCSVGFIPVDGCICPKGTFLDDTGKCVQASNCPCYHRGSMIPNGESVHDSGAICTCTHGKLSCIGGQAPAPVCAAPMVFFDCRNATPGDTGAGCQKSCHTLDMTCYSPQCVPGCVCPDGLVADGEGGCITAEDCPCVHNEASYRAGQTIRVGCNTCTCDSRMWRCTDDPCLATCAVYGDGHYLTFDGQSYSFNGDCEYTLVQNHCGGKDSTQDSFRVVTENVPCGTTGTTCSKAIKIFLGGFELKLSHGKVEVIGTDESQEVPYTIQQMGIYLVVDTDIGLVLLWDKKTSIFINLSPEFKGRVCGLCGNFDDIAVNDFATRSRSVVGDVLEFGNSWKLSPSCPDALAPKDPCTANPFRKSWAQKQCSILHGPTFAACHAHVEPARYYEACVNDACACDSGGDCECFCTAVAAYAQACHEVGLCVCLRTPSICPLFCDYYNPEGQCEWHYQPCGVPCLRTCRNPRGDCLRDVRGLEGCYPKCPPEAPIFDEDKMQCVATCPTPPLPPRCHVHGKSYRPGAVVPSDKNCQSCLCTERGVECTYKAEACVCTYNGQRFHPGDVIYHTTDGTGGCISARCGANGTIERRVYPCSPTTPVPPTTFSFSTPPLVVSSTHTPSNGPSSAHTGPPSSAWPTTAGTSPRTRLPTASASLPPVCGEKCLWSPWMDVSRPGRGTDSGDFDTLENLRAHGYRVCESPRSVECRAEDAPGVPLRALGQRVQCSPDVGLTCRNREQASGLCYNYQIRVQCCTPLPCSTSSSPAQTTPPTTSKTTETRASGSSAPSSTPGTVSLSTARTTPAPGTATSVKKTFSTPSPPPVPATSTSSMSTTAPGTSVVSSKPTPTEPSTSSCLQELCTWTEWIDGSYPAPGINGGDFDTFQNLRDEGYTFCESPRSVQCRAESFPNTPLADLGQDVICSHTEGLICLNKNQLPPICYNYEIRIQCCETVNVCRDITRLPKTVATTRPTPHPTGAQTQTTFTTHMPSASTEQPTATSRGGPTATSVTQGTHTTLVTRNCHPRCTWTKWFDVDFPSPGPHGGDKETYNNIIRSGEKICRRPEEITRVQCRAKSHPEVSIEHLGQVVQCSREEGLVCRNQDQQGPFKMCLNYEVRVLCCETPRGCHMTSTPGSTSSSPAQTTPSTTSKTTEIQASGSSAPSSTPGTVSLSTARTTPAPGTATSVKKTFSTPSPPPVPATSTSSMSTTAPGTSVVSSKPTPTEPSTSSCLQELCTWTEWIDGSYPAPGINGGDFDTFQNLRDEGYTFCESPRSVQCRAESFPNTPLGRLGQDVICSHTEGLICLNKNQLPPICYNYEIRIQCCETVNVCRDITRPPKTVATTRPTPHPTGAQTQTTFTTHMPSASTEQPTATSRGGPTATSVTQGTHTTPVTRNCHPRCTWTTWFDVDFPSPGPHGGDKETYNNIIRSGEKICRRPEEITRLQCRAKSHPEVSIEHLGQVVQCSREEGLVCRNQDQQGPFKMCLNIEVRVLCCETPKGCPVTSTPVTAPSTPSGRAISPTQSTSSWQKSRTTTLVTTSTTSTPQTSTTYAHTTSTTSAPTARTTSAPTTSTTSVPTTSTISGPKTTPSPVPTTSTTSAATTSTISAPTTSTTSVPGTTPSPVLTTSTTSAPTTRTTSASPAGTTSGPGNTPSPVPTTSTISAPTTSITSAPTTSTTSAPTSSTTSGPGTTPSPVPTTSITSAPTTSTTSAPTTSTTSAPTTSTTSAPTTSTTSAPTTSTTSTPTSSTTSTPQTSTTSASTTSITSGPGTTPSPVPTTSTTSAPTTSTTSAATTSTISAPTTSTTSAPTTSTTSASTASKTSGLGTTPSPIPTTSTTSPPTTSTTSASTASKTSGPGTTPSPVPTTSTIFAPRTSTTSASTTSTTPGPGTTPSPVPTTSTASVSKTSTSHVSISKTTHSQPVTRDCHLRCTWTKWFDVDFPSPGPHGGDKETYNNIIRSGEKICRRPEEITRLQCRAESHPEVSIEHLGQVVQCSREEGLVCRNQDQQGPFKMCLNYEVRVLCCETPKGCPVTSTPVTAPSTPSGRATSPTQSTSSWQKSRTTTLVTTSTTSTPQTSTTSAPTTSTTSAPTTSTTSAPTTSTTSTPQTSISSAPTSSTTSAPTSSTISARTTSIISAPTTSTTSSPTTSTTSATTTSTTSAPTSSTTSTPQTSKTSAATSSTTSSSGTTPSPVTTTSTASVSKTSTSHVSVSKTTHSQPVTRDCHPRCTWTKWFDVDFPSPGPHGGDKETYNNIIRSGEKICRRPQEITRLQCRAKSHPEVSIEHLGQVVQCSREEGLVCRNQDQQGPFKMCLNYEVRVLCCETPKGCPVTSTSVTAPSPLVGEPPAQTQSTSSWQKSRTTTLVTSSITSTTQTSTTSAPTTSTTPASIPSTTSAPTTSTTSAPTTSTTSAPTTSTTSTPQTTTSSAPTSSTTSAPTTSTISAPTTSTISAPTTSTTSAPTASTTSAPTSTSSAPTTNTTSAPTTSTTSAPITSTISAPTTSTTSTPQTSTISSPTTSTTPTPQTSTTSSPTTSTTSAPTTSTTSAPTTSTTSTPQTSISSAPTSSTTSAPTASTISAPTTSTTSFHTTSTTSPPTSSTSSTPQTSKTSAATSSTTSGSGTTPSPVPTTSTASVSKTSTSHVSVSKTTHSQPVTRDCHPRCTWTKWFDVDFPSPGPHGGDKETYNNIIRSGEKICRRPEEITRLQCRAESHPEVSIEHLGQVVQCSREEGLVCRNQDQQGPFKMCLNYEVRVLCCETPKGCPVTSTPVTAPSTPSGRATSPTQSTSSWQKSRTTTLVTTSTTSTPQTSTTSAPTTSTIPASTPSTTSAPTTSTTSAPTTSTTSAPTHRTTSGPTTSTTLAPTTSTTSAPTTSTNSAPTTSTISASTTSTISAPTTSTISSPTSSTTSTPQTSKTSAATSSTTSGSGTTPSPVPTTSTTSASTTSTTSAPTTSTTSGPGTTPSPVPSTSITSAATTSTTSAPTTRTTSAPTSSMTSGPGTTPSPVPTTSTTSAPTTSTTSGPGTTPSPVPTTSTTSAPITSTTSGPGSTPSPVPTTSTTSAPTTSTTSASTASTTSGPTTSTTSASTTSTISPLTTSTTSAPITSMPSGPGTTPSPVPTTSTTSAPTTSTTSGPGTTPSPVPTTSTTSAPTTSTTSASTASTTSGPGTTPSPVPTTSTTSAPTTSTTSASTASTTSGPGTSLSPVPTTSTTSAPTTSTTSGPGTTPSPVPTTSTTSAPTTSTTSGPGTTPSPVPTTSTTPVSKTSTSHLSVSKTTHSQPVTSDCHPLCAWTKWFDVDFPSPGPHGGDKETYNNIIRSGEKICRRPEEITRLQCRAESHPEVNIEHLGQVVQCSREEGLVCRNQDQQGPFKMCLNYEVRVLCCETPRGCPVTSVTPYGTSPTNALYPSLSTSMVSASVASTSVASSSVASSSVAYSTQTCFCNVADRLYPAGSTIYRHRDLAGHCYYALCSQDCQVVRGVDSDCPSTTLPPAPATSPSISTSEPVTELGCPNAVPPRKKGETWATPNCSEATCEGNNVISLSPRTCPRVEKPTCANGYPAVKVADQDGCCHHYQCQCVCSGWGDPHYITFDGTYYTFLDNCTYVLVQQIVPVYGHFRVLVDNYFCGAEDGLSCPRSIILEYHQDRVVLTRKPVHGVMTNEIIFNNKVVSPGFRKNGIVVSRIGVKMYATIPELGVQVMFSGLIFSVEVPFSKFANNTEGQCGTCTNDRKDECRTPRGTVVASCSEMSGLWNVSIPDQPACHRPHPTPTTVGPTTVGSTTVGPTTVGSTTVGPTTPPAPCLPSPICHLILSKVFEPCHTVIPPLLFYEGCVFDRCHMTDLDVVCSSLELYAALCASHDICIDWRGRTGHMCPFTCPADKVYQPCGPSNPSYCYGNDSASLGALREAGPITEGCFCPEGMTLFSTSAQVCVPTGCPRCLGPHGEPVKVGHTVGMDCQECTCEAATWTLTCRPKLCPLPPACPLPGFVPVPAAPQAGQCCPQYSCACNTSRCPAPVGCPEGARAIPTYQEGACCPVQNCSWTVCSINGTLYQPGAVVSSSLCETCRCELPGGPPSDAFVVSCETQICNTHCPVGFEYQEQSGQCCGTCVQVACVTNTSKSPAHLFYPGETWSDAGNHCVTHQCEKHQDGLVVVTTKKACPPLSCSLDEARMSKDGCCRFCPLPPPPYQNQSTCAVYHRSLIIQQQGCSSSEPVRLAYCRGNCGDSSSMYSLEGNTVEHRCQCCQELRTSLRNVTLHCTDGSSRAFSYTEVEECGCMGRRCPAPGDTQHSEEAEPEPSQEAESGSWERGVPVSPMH
Sequence of MUC5AC expressed by CFPAC-1 pancreatic tumor cells (human) (P98088 other isoform, or with tags, fused parts or gaps limits assumed): as above
Sequence of MUC5AC expressed by LS174T colorectal tumor cells (human) (P98088 other isoform, or with tags, fused parts or gaps limits assumed, change not shown): as the sequence (P98088 other isoform, or with tags, fused parts or gaps limits assumed) above

- % of cells stained [1]: 100%
Substance: 1-13M1 (Abcam Inc.) (antibody)

- % of cells stained [1]: < 5%
Substance: 2-11M1 (Abcam Inc.) (antibody)

- % Cells Stained [2]: 3.85%
- mfi [2]: 35 mfi
- Percent positive [3]: 3.85%
- Percent positive [4]: 2.33%
- % Cells Stained [5]: 1.79%
- mfi [5]: 25 mfi
- % Cells Stained [6]: 2.33%
- mfi [6]: 34 mfi
- Percent positive [7]: 3.38%
- % Cells Stained [8]: 3.38%
- mfi [8]: 56 mfi
- Percent positive [9]: 1.79%
Substance: Isotype control antibody

- Rosetted cells (>8 beads) [10]: 0%
Substance: human IgG (antibody)
